Assay results: publication PMC8058328 (Developmental cell, 2021)

Target: T1, GST-SH3BP4-HIS8x (human, UniProt Q9P0V3 1-963)
T1 sequence (looked up): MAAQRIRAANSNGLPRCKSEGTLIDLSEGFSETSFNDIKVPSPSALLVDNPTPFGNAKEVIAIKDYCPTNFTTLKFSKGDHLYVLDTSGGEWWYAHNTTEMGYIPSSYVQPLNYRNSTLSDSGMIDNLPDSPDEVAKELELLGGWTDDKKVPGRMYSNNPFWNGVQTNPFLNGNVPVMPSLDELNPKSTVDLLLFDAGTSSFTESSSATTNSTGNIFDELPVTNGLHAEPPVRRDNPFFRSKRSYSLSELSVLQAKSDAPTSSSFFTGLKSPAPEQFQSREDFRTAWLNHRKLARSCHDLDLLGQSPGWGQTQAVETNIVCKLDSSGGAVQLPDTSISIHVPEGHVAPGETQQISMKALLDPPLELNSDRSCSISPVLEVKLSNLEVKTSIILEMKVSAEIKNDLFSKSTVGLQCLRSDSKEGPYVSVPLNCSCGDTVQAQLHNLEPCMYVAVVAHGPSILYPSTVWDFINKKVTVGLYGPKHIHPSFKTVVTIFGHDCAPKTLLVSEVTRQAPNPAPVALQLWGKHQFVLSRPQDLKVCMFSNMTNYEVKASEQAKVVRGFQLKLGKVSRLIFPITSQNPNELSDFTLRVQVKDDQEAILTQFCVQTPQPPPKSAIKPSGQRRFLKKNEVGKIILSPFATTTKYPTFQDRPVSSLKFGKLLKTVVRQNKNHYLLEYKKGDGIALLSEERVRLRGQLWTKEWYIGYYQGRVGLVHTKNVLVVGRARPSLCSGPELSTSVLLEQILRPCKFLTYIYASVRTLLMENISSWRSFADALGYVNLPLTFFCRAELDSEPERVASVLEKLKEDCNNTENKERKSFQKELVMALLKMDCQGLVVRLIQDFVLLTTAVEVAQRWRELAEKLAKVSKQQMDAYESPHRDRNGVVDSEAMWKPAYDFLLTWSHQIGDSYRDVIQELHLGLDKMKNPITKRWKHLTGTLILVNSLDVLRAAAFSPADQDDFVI
Assay: pull-down

B1: GIPC1-HIS8x (natural protein, human, UniProt O14908 1-333, looked up)
chain: MPLGLGRRKKAPPLVENEEAEPGRGGLGVGEPGPLGGGGSGGPQMGLPPPPPALRPRLVFHTQLAHGSPTGRIEGFTNVKELYGKIAEAFRLPTAEVMFCTLNTHKVDMDKLLGGQIGLEDFIFAHVKGQRKEVEVFKSEDALGLTITDNGAGYAFIKRIKEGSVIDHIHLISVGDMIEAINGQSLLGCRHYEVARLLKELPRGRTFTLKLTEPRKAFDMISQRSAGGRPGSGPQLGTGRGTLRLRSRGPATVEDLPSAFEEKAIEKVDDLLESYMGIRDTELAATMVELGKDKRNPDELAEALDERLGDFAFPDEFVFDVWGAIGDAKVGRY
**Q.** Does B1 bind?
**A.** binds
